Measured values from patent US20020164595, “Sequence specific DNA binding by p53” (published 2002).
Positions count from the first letter of the chain named.

B1: synthetic oligo 6 (cloned consensus dimer) (dsDNA)
DNA 1: TGCAGGAATTCGATAGGCATGTCTAGGCATGTCTATCAAGCTTATCGAT
DNA 2: ATCGATAAGCTTGATAGACATGCCTAGACATGCCTATCGAATTCCTGCA
B2: synthetic oligo 7 (cloned consensus dimer, inverted) (dsDNA)
DNA 1: B1 DNA 1 with G27A, T32C
DNA 2: B1 DNA 2 with A18G, C23T
B3: synthetic oligo 8 (cloned consensus dimer, inverted) (dsDNA)
DNA 1: B1 DNA 1 with G17A, T22C
DNA 2: B1 DNA 2 with A28G, C33T
B4: synthetic oligo 5 (direct half-site repeats) (dsDNA)
DNA 1: AGGCAAGGCAAGGCAAGGCA
DNA 2: TGCCTTGCCTTGCCTTGCCT
B5: fragment A subfragment 5 (dsDNA)
DNA 1: AGTGAAAGCAGGTAGATTGCCTTGCCTGGACTTGCCTGGCCTTGCCTTTTCTTTC
DNA 2: GAAAGAAAAGGCAAGGCCAGGCAAGTCCAGGCAAGGCAATCTACCTGCTTTCACT
B6: synthetic oligo 1 (A:T-substituted monomer) (dsDNA)
DNA 1: AGGAATTCCT
DNA 2: AGGAATTCCT
B7: consensus monomer (dsDNA)
DNA 1: AGGCATGTCT
DNA 2: AGACATGCCT
B8: synthetic oligo 2 (A:T-substituted dimer) (dsDNA)
DNA 1: AGGAATTCCTAGGAATTCCT
DNA 2: AGGAATTCCTAGGAATTCCT
B9: synthetic oligo 9 (cloned monomer) (dsDNA)
DNA 1: TGCAGGAATTCGATAGGCATGTCTATCAAGCTTATCGAT
DNA 2: ATCGATAAGCTTGATAGACATGCCTATCGAATTCCTGCA

Assays:
p53 wild-type [1] = biological target: T1, p53 wild-type (Homo sapiens, UniProt P04637 P04637:1-393); test: pulldown; settings: chain copies: 4; label: 32P
T1 sequence (P04637 whole entry, the tested form may be a part, one chain of several): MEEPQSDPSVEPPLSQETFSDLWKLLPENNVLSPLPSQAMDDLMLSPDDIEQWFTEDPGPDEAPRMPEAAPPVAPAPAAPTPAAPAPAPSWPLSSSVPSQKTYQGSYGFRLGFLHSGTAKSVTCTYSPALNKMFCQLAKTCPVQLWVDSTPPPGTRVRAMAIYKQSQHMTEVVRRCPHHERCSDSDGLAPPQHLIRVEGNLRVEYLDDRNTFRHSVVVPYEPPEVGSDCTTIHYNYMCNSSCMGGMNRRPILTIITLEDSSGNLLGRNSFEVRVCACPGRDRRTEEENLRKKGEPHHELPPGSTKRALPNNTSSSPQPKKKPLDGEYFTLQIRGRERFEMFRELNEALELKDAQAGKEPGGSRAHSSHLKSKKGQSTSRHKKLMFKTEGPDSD
Text: FIG. 11A. […] For each sample, the control lane (C) contained 2% of the total DNA used in the binding reaction, and was composed of two fragments: 2.9 kb vector DNA fragment, and a fragment of 40 to 80 bp containing no insert (lane 9; XhoI plus Pst1 digest of pBluescript II SK+), the 10 bp consensus monomer sequence 5′-[…]-3′ (lane 5), or multimers of this sequence arranged as indicated (lanes 1 to 4, 6, to 8). Bound DNA from the IP is shown in the B lanes.
To determine if the 10 bp consensus monomer could bind p53, a synthetic oligonucleotide (5′-[…]-3′) containing the consensus sequence was studied. Oligonucleotide duplexes were tested either directly or after cloning into plasmid vectors. […] Two variants of the consensus motif were also tested for binding. In the first, the two critical G:C bp's at position 4 and 6 of the monomer were substituted with A:T bp's (FIG. 10, synthetic oligonucleotides 1,2).

p53 wild-type [2] = biological target: T1, p53 wild-type; test: pulldown; settings: chain copies: 4
p53 wild-type [3] = biological target: T1, p53 wild-type; test: pulldown; monomer alone, not shown; settings: chain copies: 4

Binder	binding result (p53 wild-type [1])	binding result (p53 wild-type [2])	further results
B1	binds	–	–
B2	binds	–	–
B3	binds	–	–
B4	–	no binding	–
B5	–	–	binding result (p53 wild-type [2]; label: 32P): binds
B6	–	no binding	–
B7	–	–	binding result (p53 wild-type [3]): no binding
B8	–	no binding	–
B9	no binding	–	–
